In publication PMC3958483, “Fine Specificity and Molecular Competition in SLAM Family Receptor Signalling” (PLoS ONE, 2014):
pKd: −log10 of the molar value.

Legend:
Assay in all cases: SPR; biotinylated phosphopeptides immobilised on streptavidin chip (about 25 RU single, 50 RU tandem motifs); soluble recombinant protein injected; 37°C; HBS-EP; equilibrium binding (Table 4; same-day purification not given)
[1] = target: CD244 ITSM4 phosphopeptide (human)
[2] = target: CD244 ITSM3 phosphopeptide (human)
[3] = target: CD244 ITSM2 phosphopeptide (human)

Chain of SAP (recombinant full-length human SAP) (O60880 whole entry): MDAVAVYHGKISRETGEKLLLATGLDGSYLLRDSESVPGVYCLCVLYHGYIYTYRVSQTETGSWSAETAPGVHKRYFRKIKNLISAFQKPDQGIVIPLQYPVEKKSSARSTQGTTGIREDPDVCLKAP

“SAP (recombinant full-length human SAP) (from UniProt O60880 1-128) (natural protein)” showed a pKd [1] of 5.72, a pKd [2] of 7.10 and a pKd [3] of 7.70.
